Assay results taken from article PMC8936114.

Target: NSP12 (RNA-dependent RNA polymerase) (SARS-CoV-2, UniProt P0DTD1 4393-5324)
Test: filter binding; 20 mM Tris, 200 mM KCl, room temperature, 1 h; pH not stated; […]
Details: protein: commercial; tags: His; label: 3' biotin; stem loops

B1: Scov2_7431_7555_RNA (structured_RNA)
RNA: GGGCGAAAACGCCCCAUUUUAUUAUGUAUGGAAAAGUUAUGUGCAUGUUGUAGACGGUUGUAAUUCAUCAACUUGUAUGAUGUGUUACAAACGUAAUAGAGCAACAAGAGUCGAAUGUACAACUAUUGUUAAUGGUGUU
modifications: 3' biotinylation (Pierce RNA 3' End Biotinylation Kit)
Kd: 17 nM
